This note sets out measurements from article PMC11157650.

The target in experiment [1] is Fc part of the IgM protomer left after IgMBRAZOR cleavage (two mu chain fragments from Ala344 to the C-terminus) (human). Put plainly: SEC + native MS; online SEC-Orbitrap-based CDMS of IgM co-expressed with the J-chain, undigested or digested with IgMBRAZOR; sample in PBS, 0.5 μg injected; mobile phase 100 mM ammonium acetate pH 6.8; the oligomer is held by disulfide bonds.

Experiment [2] addresses Recombinant anti-StrepTag IgM protomer (two mu heavy chains and two kappa light chains). Described as above.

As a reminder, the stoichiometry N is the number of molecules, sites or subunits per partner or assembly.

Turning to “Fc part of the IgM protomer left after IgMBRAZOR cleavage (two mu chain fragments from Ala344 to the C-terminus) (domain or fragment)”, the stoichiometry N in experiment [1] turned out to be 5.

B1: Recombinant anti-StrepTag IgM protomer (two mu heavy chains and two kappa light chains) (antibody, V domains shown)
VH: EVQLEQSGPELVKPGASVKMSCKASGYTFTNYYMKWVKQSHGKSLEWIGDLNPNNGDTFYNQKFKGKATLTVDKSSNTAYMQLNSLTSEDSAVYYCARTGRYEENAMDYWGQGTSVTVSS
VL: ELVMTQSPASLAVSLGQRATISCRASESVDSYGKSFMHWYQLKPGQPPKLLIYRASNLESGVPARFSGSGSRTDFTLTIDPVEADDAATYYCQQNNEDPWTFGGGTKLEIK
As to B1, the stoichiometry N in experiment [2] came out at 5.
